{
  "source": "IntAct's records for PubMed 26840340",
  "parents": {"B1": {"name": "Islet amyloid polypeptide (Homo sapiens), P10997 (parent)", "chain": "MGILKLQVFLIVLSVALNHLKATPIESHQVEKRKCNTATCATQRLANFLVHSSNNFGAILSSTNVGSNTYGKRNAVEVLKREPLNYLPL"}},
  "data": [
    {"variants_of": "B1", "conditions": "with bace1_human BACE1, P56817", "values": [
      {"variant": "MGILKLQVFLIVLSVALNHLKATPIESHQVEKRKCNTATCATQRLANFLVHSSNNKGAILSSTNVGSNTYGKRNAVEVLKREPLNYLPL", "note": "[F56K]", "effect of a mutation on the interaction": "with no effect"}
    ]}
  ]
}
